How the values were obtained:
[1] = biological target: human TREM-1-Ligand (human); assay: flow cytometry, double staining with anti CD15, CD15 low neutrophils of a septic patient
[2] = biological target: human TREM-1-Ligand (human); assay: flow cytometry, double staining with anti CD15, CD15 high neutrophils of a septic patient
[3] = biological target: human TREM-1-Ligand (human); assay: flow cytometry on peripheral neutrophils of a sepsis patient, 1 µg huTREM-1/IgM
[4] = biological target: human TREM-1-Ligand (human); assay: flow cytometry on peripheral neutrophils of a sepsis patient, 0.2 µg huTREM-1/IgM
[5] = biological target: murine TREM-1-Ligand (mouse); assay: flow cytometry, peritoneal cells of a representative control mouse
[6] = biological target: murine TREM-1-Ligand (mouse); assay: flow cytometry, peritoneal cells of a representative septic (CLP) mouse
[7] = biological target: murine TREM-1-Ligand (mouse); assay: flow cytometry, low Ly-6G peritoneal cell subset, control mouse
[8] = biological target: murine TREM-1-Ligand (mouse); assay: flow cytometry, low Ly-6G peritoneal cell subset, septic (CLP) mouse
[9] = biological target: murine TREM-1-Ligand (mouse); assay: flow cytometry, high Ly-6G peritoneal cell subset, septic (CLP) mouse
[10] = biological target: murine TREM-1-Ligand (mouse); assay: flow cytometry, tetramer staining of blood cells of septic mice 6 hours after CLP induction

Row | percentage of TREM-1-Ligand expressing cells [1] [%] | percentage of TREM-1-Ligand expressing cells [2] [%] | percent of cells stained positive [3] [%] | percent of cells stained positive [4] [%] | frequency of Ly-6G positive, murine TREM-1-Receptor/IgG positive cells [5] [%] | frequency of Ly-6G positive, murine TREM-1-Receptor/IgG positive cells [6] [%] | frequency of double positive population [7] [%] | frequency of double positive population [8] [%] | frequency of double positive population [9] [%] | percent of Ly-6G positive cells positive [10] [%] | Substance
1 | 38 | 2 | 80 | 45 | – | – | – | – | – | – | human TREM-1-Receptor/human IgM fusion protein (from UniProt Q9NP99 21-200)
2 | – | – | – | – | 8.8 | 35 | 40 | 77 | 33 | 2 | murine TREM-1-Receptor/human IgG fusion protein (from UniProt Q9JKE2 21-202) (Fc fusion)

— patent US20060183125A1
